Reference: FireProtDB (doi:10.1021/bi9621829)

B1: Lysozyme C, P61626 (parent)
chain: MKALIVLGLVLLSVTVQGKVFERCELARTLKRLGMDGYRGISLANWMCLAKWESGYNTRATNYNAGDRSTDYGIFQINSRYWCNDGKTPGAVNACHLSCSALLQDNIADAVACAKRVVRDPQGIRAWVAWRNRCQNRDVRQYVQGCGV

Variants of: B1
Conditions: Homo sapiens, pH 2.7, Thermal, DSC, glycine 0.05 M, reversible: yes, structure 1LZ1, whole UniProt chain shown

Variant | ddG of mutation (higher = less stable) (64.9 °C) [kcal/mol] | heat capacity change of unfolding (64.9 °C) [kcal/mol/K] | Tm [°C] | change of melting temperature, mutant - wild type (higher = more stable) [°C] | heat capacity change of unfolding [kcal/mol/K] | unfolding enthalpy (calorimetric) [kcal/mol] | unfolding enthalpy (van 't Hoff) [kcal/mol]
V143A | 1.32 | 1.29 | 60.9 | -4 | 1.29 | 113 | 116
V118A | 0.26 | 1 | 64.1 | -0.8 | 1 | 110 | 120
V139A | 1.44 | 1.53 | 60.4 | -4.5 | 1.53 | 110 | 112
V111A | – | – | 62.6 | -2.3 | 1.53 | 112 | 120
V128A | -0.53 | 1.24 | 66.4 | 1.5 | 1.24 | 116 | 122
V117A | 0.98 | 1.58 | 61.9 | -3 | 1.58 | 111 | 117
V92A | 0.36 | 1.48 | 63.8 | -1.1 | 1.48 | 114 | 120
V20A | 1.51 | 1.56 | 60.3 | -4.6 | 1.56 | 112 | 114
V148A | 0.84 | 1.51 | 62.3 | -2.6 | 1.51 | 111 | 119
